From article PMC3696110, “Hsp70 Oligomerization Is Mediated by an Interaction between the Interdomain Linker and the Substrate-Binding Domain” (PLoS ONE, 2013)

Assays:
[1] = Analytical SEC relative populations of oligomeric forms; type: physicochemical, human; conditions: Superdex 75, 4 °C, 50 mM Tris pH 7.4, 150 mM KCl
Procedure: (§1) Analytical SEC was performed at 4 °C using a Superdex 75 10/300 GL column (GE Healthcare LifeSciences, Little Chalfont, U.K.), which had previously been calibrated using a mixture of standard proteins (Gel Filtration LMW Calibration Kit; GE Healthcare LifeSciences, Little Chalfont, U.K.). Typically, samples of the various constructs contained 70 µM of protein in 50 mM Tris buffer at pH 7.4, with 150 mM KCl, 5 mM MgCl2 and were incubated for 15 min (unless otherwise specified) at room temperature before being loaded onto the column for analysis. To evaluate the reversibility of the oligomerization process, the different elution peaks obtained for each protein variant were subsequently analyzed after concentrating the different fractions using AmiconUltra-0.5, Ultracel-3 Membrane, 3 kDa (Millipore, Bedford, MA, USA). A similar analysis was also performed at 6 µM concentration for all the protein variants to allow for a direct comparison between the results obtained by SEC and MS experiments.
The influence of substrate binding on the oligomerization properties of all the variants was examined by using the well-characterized Hsp70 substrate, the NR peptide (NRLLLTG, Genemed Synthesis Inc., San Antonio, TX, USA). A 14-fold excess of the peptide was added in each case to a fresh protein sample, incubated for 1 h at room temperature, unless otherwise specified, and then loaded onto the Superdex 75 10/300 GL column for analysis. The relative quantities of the different protein species were estimated by analysing the chromatographic profile using a Gaussian function for each elution peak (OriginPro 8, Originlab, Northampton, MA, USA) and measuring the relative area under each peak.

[2] = Analytical SEC, Stokes radius and oligomeric state; type: physicochemical, human
Procedure: as §1

[3] = Secondary structure content from far-UV CD; type: physicochemical, human; conditions: K2D software; 20 µM protein, 7 mM Tris pH 7.4, 170 mM KCl, 5 mM MgCl2; 25 °C
Procedure: Far-UV CD spectra for all protein variants were recorded using a Jasco J-810 spectropolarimeter equipped with a Peltier holder, using a 0.1 cm path length cuvette. Typically, samples contained 20 µM protein in 7 mM Tris buffer at pH 7.4, containing 170 mM KCl and 5 mM MgCl2. The far-UV CD spectra of all the variants in their native, thermally denatured and refolded states were recorded from 198 to 250 nm, and the spectrum of the buffer was systematically subtracted from the spectra of all protein samples. The secondary structure content was estimated from the far-UV CD spectrum for each protein variant using K2D software.

[4] = Thermal denaturation monitored by far-UV CD; type: physicochemical, human
Procedure: Protein structural stability was analyzed by monitoring the CD signal at 222 nm upon thermal denaturation. Thermal runs were performed from 5 to 90 °C at a rate of 1 °C. min^-1. Data points were acquired every 0.1 °C with a response time of 2 s and a bandwidth of […]. After thermal denaturation, each protein sample was cooled to the starting temperature, and a second denaturation curve recorded in order to analyse the degree of reversibility of the denaturation process. Analysis of the thermal unfolding curves was performed assuming a three-state unfolding model.

[5] = nESI-MS relative populations of oligomeric forms; type: physicochemical, human; conditions: 6-15 µM protein, 150 mM ammonium acetate, pH 7.4, estimated error 5% (SD of 3-4 independent experiments)
Procedure: Prior to MS analysis, samples were buffer exchanged into 150 mM ammonium acetate, pH 7.4, using Micro Bio-spin 6 columns (Bio-Rad, Digilab Division, Cambridge, MA, USA). For all the experiments protein concentrations ranging from 6 to 18 µM were used. In the case of the substrate binding experiments, proteins were analyzed in the presence of a 1: 1 molar ratio of the NR peptide; this substrate concentration, lower than in the SEC experiments, was chosen to ensure adequate resolution of the various charge state series, which is critical for unambiguous assignment of substrate-bound states. Due to suppression effects during nESI ionization, a relatively limited set of molar ratios could be investigated by in this way.
nESI-MS spectra were obtained according to a previously published protocol on an orthogonal time-of-flight mass spectrometer with a Z-spray source (LCT, Waters, Manchester, UK) in positive ion mode using the following parameters: capillary voltage, 1500 V; sample cone voltage, 120 V (unless otherwise specified); extraction cone voltage, 1V; and ion transfer stage pressure, 8.8 mbar. Spectra were calibrated externally using a 33 mg/ml solution of cesium iodide. Data were acquired and processed with MassLynx software (Waters, Manchester, UK), and are shown with minimal smoothing and without background subtraction. The relative abundances of the different oligomeric states were estimated from the intensities of the most abundant charge states for each construct and are expressed as a percentage of the total intensity.

[6] = Tryptophan (W580) fluorescence emission; type: physicochemical, human; conditions: W580, excitation 295 nm
Procedure: Steady-state tryptophan fluorescence emission spectra of native, thermally denatured and refolded proteins were recorded from 300 to 400 nm, selectively exciting the only tryptophan residue in the SBD (W580) at 295 nm, using a Cary Eclipse spectrofluorimeter (Varian, Palo Alto, CA, USA). Excitation and emission band-passes were set to 5 nm each.

[7] = previously reported; ref [S3]; cited from earlier work
Procedure: Supplementary file pone.0067961.s005.tif: Figure S4 Concentration dependency of the analytical SEC chromatograms of the 'C-term' variant. The protein concentrations used were 1µM (black line), 2µM (orange line), 5 µM (pink line), 10 µM (cyan line), 70 µM (red line) and 125 µM (green line). Essentially the same elution profile was found for all the protein concentrations used. At the top the chromatogram the previously reported Stokes radii of the standard proteins used to calibrate the column are reported: conalbumin (40.4 Å), ovalbumin (30.5 Å), carbonic anhydrase (23.6 Å) [S3], ribonuclease ...

[8] = 70 µM protein, 5 mM MgCl2, 15 min at room temperature, estimated error 3.5% (SD of 3-4 independent experiments)
[9] = 6-15 µM protein, 5 mM MgCl2, estimated error 3.5% (SD of 3-4 independent experiments)

B1: C-term: truncated human Hsp70 (540-641), C-terminal segment of helix B, helices C-E and disordered C-terminal region (protein, UniProt P0DMV8 540-641, looked up, fragment)
chain: NALESYAFNMKSAVEDEGLKGKISEADKKKVLDKCQEVISWLDANTLAEKDEFEHKRKELEQVCNPIISGLYQGAGGPGPGGFGAQGPKGGSGSGPTIEEVD
Q: With B1 as the molecule, how does the Dimer population [1, 8] read?
A: Its Dimer population is 0%.

Q: What about the Monomer population [1, 8] of the same molecule?
A: Its Monomer population is 100%.

Q: What about the Total oligomer population [1, 8] of the same molecule?
A: Its Total oligomer population is 0%.

Q: And the Dimer population [1, 9]?
A: Its Dimer population is 0%.

Q: What about the Monomer population [1, 9] of the same molecule?
A: Its Monomer population is 100%.

Q: And the Total oligomer population [1, 9]?
A: Its Total oligomer population is 0%.

Q: What about the Oligomeric state ([2]; analytical SEC, 1 to 125 µM, single elution peak at 11.8 ml) of the same molecule?
A: The Oligomeric state was “monomeric”.

Q: What about the Stokes radius ([2]; analytical SEC, from retention volume) of the same molecule?
A: The Stokes radius was 21.4 Å.

Q: What about the “Ability to dimerize in isolation” value ([2]; under experimental conditions used) of the same molecule?
A: The value was “unable to dimerize in isolation”.

Q: And the “Random-coil content estimated from far-UV CD” value [3]?
A: The value was 33%.

Q: And the “α-helix content estimated from far-UV CD” value [3]?
A: Its value is 60%.

Q: And the “β-sheet content estimated from far-UV CD” value [3]?
A: The value was 7%.

Q: And the “∆Hm, 1st transition” value ([4]; CD 222 nm, 20 µM protein, 7 mM Tris pH 7.4, 170 mM KCl, 5 mM MgCl2, three-state fit (C-term two-state), SE of fit)?
A: The value was 51.5 ± 1.5 kcal/mol.

Q: And the “Tm, 1st transition” value ([4]; CD 222 nm, 5 to 90 °C at 1 °C/min, 20 µM protein, 7 mM Tris pH 7.4, 170 mM KCl, 5 mM MgCl2, three-state fit (C-term two-state), SE of fit)?
A: Its value is 49.9 ± 0.2 °C.

Q: What about the “Reversibility of thermal unfolding” value ([4]; far-UV CD, second denaturation curve after cooling) of the same molecule?
A: Its value is “reversibly”.

Q: And the Dimer population [5]?
A: The Dimer population was 0%.

Q: And the Total oligomer population [5]?
A: The Total oligomer population was 0%.

Q: What about the Trimer population [5] of the same molecule?
A: The Trimer population was 0%.

Q: And the “Red-shift of fluorescence emission maximum, native to refolded” value [6]?
A: The value was “not observed”.

B2: conalbumin: SEC standard protein (protein, UniProt P02789 20-705, looked up)
Ovotransferrin: APPKSVIRWCTISSPEEKKCNNLRDLTQQERISLTCVQKATYLDCIKAIANNEADAISLDGGQAFEAGLAPYKLKPIAAEVYEHTEGSTTSYYAVAVVKKGTEFTVNDLQGKTSCHTGLGRSAGWNIPIGTLLHRGAIEWEGIESGSVEQAVAKFFSASCVPGATIEQKLCRQCKGDPKTKCARNAPYSGYSGAFHCLKDGKGDVAFVKHTTVNENAPDQKDEYELLCLDGSRQPVDNYKTCNWARVAAHAVVARDDNKVEDIWSFLSKAQSDFGVDTKSDFHLFGPPGKKDPVLKDLLFKDSAIMLKRVPSLMDSQLYLGFEYYSAIQSMRKDQLTPSPRENRIQWCAVGKDEKSKCDRWSVVSNGDVECTVVDETKDCIIKIMKGEADAVALDGGLVYTAGVCGLVPVMAERYDDESQCSKTDERPASYFAVAVARKDSNVNWNNLKGKKSCHTAVGRTAGWVIPMGLIHNRTGTCNFDEYFSEGCAPGSPPNSRLCQLCQGSGGIPPEKCVASSHEKYFGYTGALRCLVEKGDVAFIQHSTVEENTGGKNKADWAKNLQMDDFELLCTDGRRANVMDYRECNLAEVPTHAVVVRPEKANKIRDLLERQEKRFGVNGSEKSKFMMFESQNKDLLFKDLTKCLFKVREGTTYKEFLGDKFYTVISSLKTCNPSDILQMCSFLEGK
Q: Which “Stokes radius of SEC standard protein” value [7] does the source give for B2 here?
A: The value was 40.4 Å.

B3: ovalbumin: SEC standard protein (protein, UniProt P01012 2-386, looked up)
Ovalbumin: GSIGAASMEFCFDVFKELKVHHANENIFYCPIAIMSALAMVYLGAKDSTRTQINKVVRFDKLPGFGDSIEAQCGTSVNVHSSLRDILNQITKPNDVYSFSLASRLYAEERYPILPEYLQCVKELYRGGLEPINFQTAADQARELINSWVESQTNGIIRNVLQPSSVDSQTAMVLVNAIVFKGLWEKAFKDEDTQAMPFRVTEQESKPVQMMYQIGLFRVASMASEKMKILELPFASGTMSMLVLLPDEVSGLEQLESIINFEKLTEWTSSNVMEERKIKVYLPRMKMEEKYNLTSVLMAMGITDVFSSSANLSGISSAESLKISQAVHAAHAEINEAGREVVGSAEAGVDAASVSEEFRADHPFLFCIKHIATNAVLFFGRCVSP
Q: With B3 as the molecule, how does the “Stokes radius of SEC standard protein” value [7] read?
A: The value was 30.5 Å.

B4: ribonuclease A: SEC standard protein (protein, UniProt P61823 27-150, looked up)
Ribonuclease pancreatic: KETAAAKFERQHMDSSTSAASSSNYCNQMMKSRNLTKDRCKPVNTFVHESLADVQAVCSQKNVACKNGQTNCYQSYSTMSITDCRETGSSKYPNCAYKTTQANKHIIVACEGNPYVPVHFDASV
Q: Which “Stokes radius of SEC standard protein” value [7] does the source give for B4 here?
A: The value was 16.4 Å.
